We go through 2 molecules from patent US6406872.

To fix the notation:
B1: UNC-49B GABA receptor subunit (UNC-49B.1 isoform) (receptor)
chain: QDEDSHINTQLLSSVLDRLTNRTTYDKRLRPRYGEKPVDVGITIHVSSISAVSEVDMDFTLDFYMRQTWQDPRLAFGSLDLGLSKEIDSLTVGVDYLDRLWKPDTFFPNEKKSFFHLATTHNSFLRIEGDGTVYTSQRLTVTATCPMDLKLFPMDSQHCKLEIESYGYETKDIDYYWGKKRTDLEITAVKFDTFQLPQFQPTLYFVNTTKAETSSGKYVRLALEVILVRNMGFYTMNIVIPSILIVTISWVSFWLNREASPARVGLGVTTVLTMTTLITTTNNSMPKVSYVKGLDVFLNFCFVMVFASLLEYAIVSYMNKRLVLRREKRRKAAEQQQRNEMPMFNASPKAANNNADLYFAGHNSSMNPLMEIPENCDCRTIPMMQHPRLVTDGAHTLWPAPFARPKKASKTCCQRWTPAKIDKLSRYGFPLSFSIFNIVYWLYMKYLSLNSSDKIQENDKWQQIH

Series [1] deals with the molecule itself. In words: cell-based or functional assay.
The target in series [2] is B1. In words: cell-based or functional assay.

In the case of B1, the “EC50 (µM) of GABA, two-electrode voltage clamp, Xenopus oocytes injected with UNC-49B.1 mRNA alone” value in series [1] was 43.7 µM.

B2: UNC-49C GABA receptor subunit (receptor)
chain: QDEDSHINTQLLSSVLDRLTNRTTYDKRLRPRYGEKPVDVGITIHVSSISAVSEVDMDFTLDFYMRQTWQDPRLAFGSLDLGLSKEIDSLTVGVDYLDRLWKPDTFFPNEKKSFFHLATTHNSFLRIEGDGTVYTSQRLTVTATCPMDLKLFPMDSQHCKLEIESYAYSTAEIEYKWCTSKEPNCSTAVKADANIELSSYKFTKICQKRTLASTSSGTYSRLRVSFIFDRDSGFYFLQIFFPASLVVVLSWISFWINRDSAPSRTLIGTMTVLTETHLMTGTNRRLPPVAYVKAVDVFLGFCYLLVILALIEYACVAYSKKKNEDRRRREKKTEHKPAPPTPDILHDVRLAECTCNAAPTSIIAVIKQSNRFCVSHSHIDIVSRAAFPLVFILFNTLFWLILLYKSKRLPYISEHEGDRCDAPDLH
Take B2: in series [2], the “EC50 (µM) of GABA, two-electrode voltage clamp, Xenopus oocytes co-injected with UNC-49B and UNC-49C RNA” value came out at 108 µM.
